Patent publication US20040265963A1

Assays:
[1] = biological target: T1, biotinylated phosphorylated JAK2 WT peptide (p-JAK2 WT) (human (the JAK2 WT sequence is the same for both mice and humans)); experiment: solid phase binding assay, biotinylated peptide on immobilized Tkip (FIG. 4)
T1 chain: LPQDKEYYKVKEP

[2] = biological target: Recombinant human JAK2 immobilized on agarose beads (human), O60674; experiment: cell-based or functional assay
Recombinant human JAK2 immobilized on agarose beads (human), O60674, sequence (O60674 whole entry): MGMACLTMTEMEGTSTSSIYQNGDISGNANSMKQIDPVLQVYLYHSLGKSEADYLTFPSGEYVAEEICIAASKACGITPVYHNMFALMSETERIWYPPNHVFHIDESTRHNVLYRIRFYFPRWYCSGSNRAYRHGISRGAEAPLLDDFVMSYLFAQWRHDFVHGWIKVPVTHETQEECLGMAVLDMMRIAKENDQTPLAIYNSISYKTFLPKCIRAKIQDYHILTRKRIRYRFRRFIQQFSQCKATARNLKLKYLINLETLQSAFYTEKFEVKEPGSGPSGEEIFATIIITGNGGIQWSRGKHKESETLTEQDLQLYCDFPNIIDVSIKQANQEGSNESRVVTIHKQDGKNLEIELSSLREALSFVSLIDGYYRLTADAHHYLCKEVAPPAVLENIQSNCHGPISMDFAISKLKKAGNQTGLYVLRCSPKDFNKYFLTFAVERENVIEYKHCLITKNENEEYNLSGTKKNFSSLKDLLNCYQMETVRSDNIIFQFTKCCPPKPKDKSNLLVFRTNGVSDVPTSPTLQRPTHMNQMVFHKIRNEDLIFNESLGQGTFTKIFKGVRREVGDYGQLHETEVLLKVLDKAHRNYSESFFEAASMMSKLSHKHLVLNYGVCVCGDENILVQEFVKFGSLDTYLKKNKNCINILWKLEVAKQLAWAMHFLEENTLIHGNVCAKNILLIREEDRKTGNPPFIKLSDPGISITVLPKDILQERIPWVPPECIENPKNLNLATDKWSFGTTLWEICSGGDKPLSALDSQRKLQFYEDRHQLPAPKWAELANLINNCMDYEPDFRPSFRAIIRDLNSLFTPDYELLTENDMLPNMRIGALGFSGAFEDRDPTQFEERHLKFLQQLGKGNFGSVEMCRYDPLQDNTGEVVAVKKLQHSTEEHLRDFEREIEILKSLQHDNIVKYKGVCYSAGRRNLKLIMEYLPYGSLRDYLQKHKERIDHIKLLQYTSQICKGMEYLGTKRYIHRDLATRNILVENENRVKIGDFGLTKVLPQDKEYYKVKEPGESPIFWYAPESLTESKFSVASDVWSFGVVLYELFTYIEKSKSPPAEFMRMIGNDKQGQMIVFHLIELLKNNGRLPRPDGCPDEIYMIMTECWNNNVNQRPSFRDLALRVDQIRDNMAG

- fold lower fifty percent endpoint concentration against unphosphorylated JAK2 WT [1]: 9 fold
- inhibition of 32P incorporation into JAK2/IFNGR-1 (Tkip at 50 µM) [2]: > 95%
Binder: WLVFFVIFYFFR (modifications not checked) [Tkip (tyrosine kinase inhibitor peptide), …]
